Our source for the Kd values is publication PMC3060506 (The Journal of Biological Chemistry, 2010).

This assay deals with T1, RNASEH2BC heterodimer, purified (human, UniProt Q5TBB1 1-312; Q8TDP1 1-164).
T1 sequence (looked up) 1: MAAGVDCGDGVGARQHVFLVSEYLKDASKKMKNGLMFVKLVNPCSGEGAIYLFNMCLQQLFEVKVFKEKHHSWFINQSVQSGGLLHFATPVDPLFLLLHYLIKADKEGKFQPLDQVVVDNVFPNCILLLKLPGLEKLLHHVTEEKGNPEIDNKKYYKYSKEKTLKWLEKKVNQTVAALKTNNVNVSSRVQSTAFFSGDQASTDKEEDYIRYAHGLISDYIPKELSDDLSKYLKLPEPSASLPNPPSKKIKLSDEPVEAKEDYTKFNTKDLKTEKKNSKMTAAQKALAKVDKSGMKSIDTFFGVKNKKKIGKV
T1 sequence (looked up) 2: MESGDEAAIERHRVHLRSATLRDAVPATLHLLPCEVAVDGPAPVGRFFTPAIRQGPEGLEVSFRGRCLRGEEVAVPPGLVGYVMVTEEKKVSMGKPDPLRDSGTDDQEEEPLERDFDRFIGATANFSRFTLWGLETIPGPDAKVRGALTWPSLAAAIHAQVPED
Description: fluorescence polarisation.

Ends that are not written are not given here.

As a reminder, the Kd is the constant that tells how readily two partners part at equilibrium. The molecule fluorescein-GSSHRYFLERGLESATSL [fluorescein-labeled peptide RNASEH2A:283–299] returned a Kd of 123 ± 10 nM.
